Here are results for 31 molecules from publication PMC6555819, “Comprehensive study of nuclear receptor DNA binding provides a revised framework for understanding receptor specificity”.

Sequences and labels used below:
B1: NRC3_wobSeed104_DR4_A14G_o1 (dsDNA)
DNA 1: GCTCTTGTAGATCGATAGAGGTTAAGAAAGTGCGCTGCGATTGACAGCGTAGAATGAAGG
DNA 2: CCTTCATTCTACGCTGTCAATCGCAGCGCACTTTCTTAACCTCTATCGATCTACAAGAGC
B2: NRC3_wobSeed104_DR4_G20A_o1 (dsDNA)
DNA 1: GCTCTTGTAGATCAATAGAAGTTAAGAAAGTGCGCTGCGATTGACAGCGTAGAATGAAGG
DNA 2: CCTTCATTCTACGCTGTCAATCGCAGCGCACTTTCTTAACTTCTATTGATCTACAAGAGC
B3: NRC3_wobSeed117_DR4_G10C_o1 (dsDNA)
DNA 1: GCCGTCAAACTTCAACTAAGGTAACGTAAAGCACGCGCGATTGACAGCGTAGAATGAAGG
DNA 2: CCTTCATTCTACGCTGTCAATCGCGCGTGCTTTACGTTACCTTAGTTGAAGTTTGACGGC
B4: NRC3_wobSeed138_DR5_C7T_o1 (dsDNA)
DNA 1: GCGATATAGGGTCAGCTAGAGGCCAGAGTATGGAAAGCGATTGACAGCGTAGAATGAAGG
DNA 2: CCTTCATTCTACGCTGTCAATCGCTTTCCATACTCTGGCCTCTAGCTGACCCTATATCGC
B5: NRC3_wobSeed34_DR1_G14T_o1 (dsDNA)
DNA 1: GCATCGAAAGGTCTAAGGTGAGTATACCCACCCGAAGCGATTGACAGCGTAGAATGAAGG
DNA 2: CCTTCATTCTACGCTGTCAATCGCTTCGGGTGGGTATACTCACCTTAGACCTTTCGATGC
B6: NRC3_wobSeed34_DR1_G14C_o1 (dsDNA)
DNA 1: GCATCGAAAGGTCCAAGGTGAGTATACCCACCCGAAGCGATTGACAGCGTAGAATGAAGG
DNA 2: CCTTCATTCTACGCTGTCAATCGCTTCGGGTGGGTATACTCACCTTGGACCTTTCGATGC
B7: NRC3_wobSeed128_DR5_G27T_o1 (dsDNA)
DNA 1: GCTCTTGTAGATCAACAGGAGGTTAATAAAGATCGAGCGATTGACAGCGTAGAATGAAGG
DNA 2: CCTTCATTCTACGCTGTCAATCGCTCGATCTTTATTAACCTCCTGTTGATCTACAAGAGC
B8: NRC3_wobSeed64_DR2_A4T_o1 (dsDNA)
DNA 1: GCTTGCCTAGGTCATTGGGCCAGTATAGTACGCATCGCGATTGACAGCGTAGAATGAAGG
DNA 2: CCTTCATTCTACGCTGTCAATCGCGATGCGTACTATACTGGCCCAATGACCTAGGCAAGC
B9: NRC3_wobSeed66_DR2_C13G_o1 (dsDNA)
DNA 1: GCAATACAGGGTGACTAGGCCAGAGTAGGTACGAATGCGATTGACAGCGTAGAATGAAGG
DNA 2: CCTTCATTCTACGCTGTCAATCGCATTCGTACCTACTCTGGCCTAGTCACCCTGTATTGC
B10: NRC3_wobSeed88_DR3_G24A_o1 (dsDNA)
DNA 1: GCTAGCCTAGGTCATGCGGGCCAATATAGTGTCGGCGCGATTGACAGCGTAGAATGAAGG
DNA 2: CCTTCATTCTACGCTGTCAATCGCGCCGACACTATATTGGCCCGCATGACCTAGGCTAGC
B11: NRC3_wobSeed74_DR3_C26A_o1 (dsDNA)
DNA 1: GCTCTAGTTGGTCACGGAGGTCACAAACGACGGGTAGCGATTGACAGCGTAGAATGAAGG
DNA 2: CCTTCATTCTACGCTGTCAATCGCTACCCGTCGTTTGTGACCTCCGTGACCAACTAGAGC
B12: NRC3_wobSeed74_DR3_A23C_o1 (dsDNA)
DNA 1: GCTCTAGTTGGTCACGGAGGTCCCACACGACGGGTAGCGATTGACAGCGTAGAATGAAGG
DNA 2: CCTTCATTCTACGCTGTCAATCGCTACCCGTCGTGTGGGACCTCCGTGACCAACTAGAGC
B13: NRC3_wobSeed74_DR3_T21A_o1 (dsDNA)
DNA 1: GCTCTAGTTGGTCACGGAGGACACACACGACGGGTAGCGATTGACAGCGTAGAATGAAGG
DNA 2: CCTTCATTCTACGCTGTCAATCGCTACCCGTCGTGTGTGTCCTCCGTGACCAACTAGAGC
B14: NRC3_wobSeed29_DR1_A14C_o1 (dsDNA)
DNA 1: GCGCTTACGGGTCCAAGGTTATAGCATGAATAGAATGCGATTGACAGCGTAGAATGAAGG
DNA 2: CCTTCATTCTACGCTGTCAATCGCATTCTATTCATGCTATAACCTTGGACCCGTAAGCGC
B15: NRC3_random_hg19_368_o1 (dsDNA)
DNA 1: GCTAAGAAACTCAGTCAACATGATATCTATGGCTAAGCGATTGACAGCGTAGAATGAAGG
DNA 2: CCTTCATTCTACGCTGTCAATCGCTTAGCCATAGATATCATGTTGACTGAGTTTCTTAGC
B16: NRC3_wobSeed65_DR2_T24A_o1 (dsDNA)
DNA 1: GCATATGTAGGTTATCGGGTCATACAGTTTGCGCATGCGATTGACAGCGTAGAATGAAGG
DNA 2: CCTTCATTCTACGCTGTCAATCGCATGCGCAAACTGTATGACCCGATAACCTACATATGC
B17: NRC3_wobSeed136_DR5_A14G_o1 (dsDNA)
DNA 1: GCTAGCCTAGGTCGTTCAGGGGCCAGTATAGAAAGCGCGATTGACAGCGTAGAATGAAGG
DNA 2: CCTTCATTCTACGCTGTCAATCGCGCTTTCTATACTGGCCCCTGAACGACCTAGGCTAGC
B18: NRC3_wobSeed140_DR5_T15A_o1 (dsDNA)
DNA 1: GCAGAATGAGGTTAAACGTAGATCAGGGAAGAAAGTGCGATTGACAGCGTAGAATGAAGG
DNA 2: CCTTCATTCTACGCTGTCAATCGCACTTTCTTCCCTGATCTACGTTTAACCTCATTCTGC
B19: NRC3_wobSeed110_DR4_A18T_o1 (dsDNA)
DNA 1: GCTCTGCTAGGTCAACGTTGGTCAGCTAATCTGCTAGCGATTGACAGCGTAGAATGAAGG
DNA 2: CCTTCATTCTACGCTGTCAATCGCTAGCAGATTAGCTGACCAACGTTGACCTAGCAGAGC
B20: NRC3_wobSeed100_DR4_T22C_o1 (dsDNA)
DNA 1: GCCCTACTGGGCCACGAAAGGCCATTGATTCAGTGAGCGATTGACAGCGTAGAATGAAGG
DNA 2: CCTTCATTCTACGCTGTCAATCGCTCACTGAATCAATGGCCTTTCGTGGCCCAGTAGGGC
B21: NRC3_wobSeed113_DR4_A24C_o1 (dsDNA)
DNA 1: GCATATGTAGGTTAGCTGGGGTCCTTCAGACTAGGCGCGATTGACAGCGTAGAATGAAGG
DNA 2: CCTTCATTCTACGCTGTCAATCGCGCCTAGTCTGAAGGACCCCAGCTAACCTACATATGC
B22: NRC3_wobSeed102_DR4_G19A_o1 (dsDNA)
DNA 1: GCCCTAGCAGGCCAATCTAGGTCACTCAAGGCTTGAGCGATTGACAGCGTAGAATGAAGG
DNA 2: CCTTCATTCTACGCTGTCAATCGCTCAAGCCTTGAGTGACCTAGATTGGCCTGCTAGGGC
B23: NRC3_wobSeed116_DR4_G11A_o1 (dsDNA)
DNA 1: GCAGAATGAGATTACCAAAGATCAGGGAAACGCTTGGCGATTGACAGCGTAGAATGAAGG
DNA 2: CCTTCATTCTACGCTGTCAATCGCCAAGCGTTTCCCTGATCTTTGGTAATCTCATTCTGC
B24: NRC3_wobSeed40_DR1_A4C_o1 (dsDNA)
DNA 1: GCTCGCCTAGGTCATGGGCCAGTATACCACGCGAACGCGATTGACAGCGTAGAATGAAGG
DNA 2: CCTTCATTCTACGCTGTCAATCGCGTTCGCGTGGTATACTGGCCCATGACCTAGGCGAGC
B25: NRC3_wobSeed40_DR1_C13T_o1 (dsDNA)
DNA 1: GCTAGCCTAGGTTATGGGCCAGTATACCACGCGAACGCGATTGACAGCGTAGAATGAAGG
DNA 2: CCTTCATTCTACGCTGTCAATCGCGTTCGCGTGGTATACTGGCCCATAACCTAGGCTAGC
B26: NRC3_wobSeed73_DR3_A18T_o1 (dsDNA)
DNA 1: GCCAAACTAGGTCACAGTGGTCAAAGTCCGTGCGTAGCGATTGACAGCGTAGAATGAAGG
DNA 2: CCTTCATTCTACGCTGTCAATCGCTACGCACGGACTTTGACCACTGTGACCTAGTTTGGC
B27: NRC3_wobSeed77_DR3_A14T_o1 (dsDNA)
DNA 1: GCACTTACGGGTCTACGAGGTTATAGCACGCGTATAGCGATTGACAGCGTAGAATGAAGG
DNA 2: CCTTCATTCTACGCTGTCAATCGCTATACGCGTGCTATAACCTCGTAGACCCGTAAGTGC
B28: NRC3_wobSeed77_DR3_G11C_o1 (dsDNA)
DNA 1: GCACTTACGGCTCAACGAGGTTATAGCACGCGTATAGCGATTGACAGCGTAGAATGAAGG
DNA 2: CCTTCATTCTACGCTGTCAATCGCTATACGCGTGCTATAACCTCGTTGAGCCGTAAGTGC
B29: NRC3_random_hg19_497_o1 (dsDNA)
DNA 1: GCGGGTTTAGAGATGATTTGCTGTGACAGTGTTGAGGCGATTGACAGCGTAGAATGAAGG
DNA 2: CCTTCATTCTACGCTGTCAATCGCCTCAACACTGTCACAGCAAATCATCTCTAAACCCGC
B30: NRC3_wobSeed141_DR5_C13G_o1 (dsDNA)
DNA 1: GCAGTCAAAGTTGAGGACGAGGTAACGTAAAGCACGGCGATTGACAGCGTAGAATGAAGG
DNA 2: CCTTCATTCTACGCTGTCAATCGCCGTGCTTTACGTTACCTCGTCCTCAACTTTGACTGC
B31: NRC3_wobSeed28_DR1_C20G_o1 (dsDNA)
DNA 1: GCCCTACTGGGCCAAAGGTGATTGATTCCAATGCTCGCGATTGACAGCGTAGAATGAAGG
DNA 2: CCTTCATTCTACGCTGTCAATCGCGAGCATTGGAATCAATCACCTTTGGCCCAGTAGGGC

Chain of LXRa:RXRa (Q13133 whole entry, chain 1 of 2): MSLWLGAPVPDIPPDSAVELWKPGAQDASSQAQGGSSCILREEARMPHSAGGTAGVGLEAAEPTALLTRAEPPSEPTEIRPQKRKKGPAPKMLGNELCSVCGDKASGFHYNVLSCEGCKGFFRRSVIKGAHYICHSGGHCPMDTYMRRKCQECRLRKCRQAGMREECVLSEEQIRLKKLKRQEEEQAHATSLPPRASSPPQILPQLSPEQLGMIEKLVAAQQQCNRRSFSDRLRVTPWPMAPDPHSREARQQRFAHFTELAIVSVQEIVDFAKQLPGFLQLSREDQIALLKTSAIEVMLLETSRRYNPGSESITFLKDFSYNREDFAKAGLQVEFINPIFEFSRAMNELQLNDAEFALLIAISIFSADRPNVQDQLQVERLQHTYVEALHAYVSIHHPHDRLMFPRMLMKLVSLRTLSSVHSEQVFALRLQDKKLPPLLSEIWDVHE
Chain of LXRa:RXRa (P19793 whole entry, chain 2 of 2): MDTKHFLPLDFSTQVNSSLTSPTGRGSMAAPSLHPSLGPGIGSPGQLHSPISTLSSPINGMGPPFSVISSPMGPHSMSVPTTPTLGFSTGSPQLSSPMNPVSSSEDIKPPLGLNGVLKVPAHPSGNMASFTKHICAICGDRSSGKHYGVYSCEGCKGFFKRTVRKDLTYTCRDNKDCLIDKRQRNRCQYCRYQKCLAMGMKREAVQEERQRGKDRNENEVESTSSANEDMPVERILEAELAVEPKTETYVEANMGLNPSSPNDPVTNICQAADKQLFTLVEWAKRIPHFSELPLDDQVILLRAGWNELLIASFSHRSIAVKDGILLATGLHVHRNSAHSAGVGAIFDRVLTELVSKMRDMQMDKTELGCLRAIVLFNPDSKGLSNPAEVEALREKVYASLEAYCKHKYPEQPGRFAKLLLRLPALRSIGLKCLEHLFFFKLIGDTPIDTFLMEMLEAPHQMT

The data set has as its target LXRa:RXRa (Homo sapiens, UniProt Q13133;P19793 full;full). The data set can be described thus: no ligand; PBM; 270 nM : 90 nM RXRa; PBS pH 7.4, 2% milk, 0.02% Triton X-100, 1 mM DTT, BSA, 0.4 mg/ml salmon testes DNA. The conditions noted are these: tags: His kept;His cleaved; copies: 1;1; label: surface-attached array probe. Put shortly: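 Antibodies against each partner of ligand-free nuclear receptor dimers (one per run) detected binding on custom Agilent 4×180K protein-binding microarrays after 1 h incubation. The double-stranded probes had 34-nt variable regions carrying direct-repeat seeds, single-nucleotide variants, half-site ablations and random human genomic background sequences. Binding z-scores, from regression-normalized fluorescence, use the random background probes as reference.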
As for B1, the binding signal is 3.15 PBM z-score against 500 random probes.

As for B2, the binding signal is 0.44 PBM z-score against 500 random probes. Next, B3: 0.31 PBM z-score against 500 random probes; B4: 3.06 PBM z-score against 500 random probes. For B5, the binding signal was 0.34 PBM z-score against 500 random probes. Next, B6: 0.27 PBM z-score against 500 random probes; B7: 3.26 PBM z-score against 500 random probes. Regarding B8, the binding signal was 3.21 PBM z-score against 500 random probes. Then B9, with 0.22 PBM z-score against 500 random probes; and B10, with 3.29 PBM z-score against 500 random probes; and B11, with 3.23 PBM z-score against 500 random probes. Next, B12: 0.41 PBM z-score against 500 random probes; B13: 0.43 PBM z-score against 500 random probes.

As for B14, the binding signal is 0.43 PBM z-score against 500 random probes.

As to B15, the binding signal is 0.24 PBM z-score against 500 random probes. Then B16, with 3.1 PBM z-score against 500 random probes; and B17, with 0.19 PBM z-score against 500 random probes; and B18, with 3.17 PBM z-score against 500 random probes. Next, B19: 3.08 PBM z-score against 500 random probes. In the case of B20, the binding signal is -0.05 PBM z-score against 500 random probes. Then B21, with 0.37 PBM z-score against 500 random probes; and B22, with 3 PBM z-score against 500 random probes. As for B23, the binding signal was -0.15 PBM z-score against 500 random probes. For B24, the binding signal is 3.18 PBM z-score against 500 random probes. Next, B25: 0.05 PBM z-score against 500 random probes.

Regarding B26, the binding signal is 3.02 PBM z-score against 500 random probes. Next, B27: 0.49 PBM z-score against 500 random probes; B28: 0.33 PBM z-score against 500 random probes; B29: 0.38 PBM z-score against 500 random probes. Next, B30: -0.07 PBM z-score against 500 random probes.

Take B31: the binding signal was 0.13 PBM z-score against 500 random probes.
